# Read-outs that look alike come from different tables or passages of the source.
# T1: Activin A (UniProt P08476 311-426)
# T1 sequence (looked up): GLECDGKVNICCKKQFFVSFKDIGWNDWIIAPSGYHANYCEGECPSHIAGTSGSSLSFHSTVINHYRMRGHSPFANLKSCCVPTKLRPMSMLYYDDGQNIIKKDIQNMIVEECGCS
# T2: Activin B (UniProt P09529 293-407)
# T2 sequence (looked up): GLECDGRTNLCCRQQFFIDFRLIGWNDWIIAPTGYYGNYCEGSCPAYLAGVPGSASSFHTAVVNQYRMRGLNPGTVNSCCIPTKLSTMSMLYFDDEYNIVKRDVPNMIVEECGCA
# T3: GDF-11 (UniProt O95390 299-407)
# T3 sequence (looked up): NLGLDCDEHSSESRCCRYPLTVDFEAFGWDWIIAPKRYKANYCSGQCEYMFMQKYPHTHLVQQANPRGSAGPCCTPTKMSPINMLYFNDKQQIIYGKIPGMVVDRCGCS
# T4: BMP-9 (UniProt Q9UK05 320-429)
# T4 sequence (looked up): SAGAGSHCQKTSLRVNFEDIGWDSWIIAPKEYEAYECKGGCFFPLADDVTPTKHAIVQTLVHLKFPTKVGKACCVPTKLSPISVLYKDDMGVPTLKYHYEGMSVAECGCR
# T5: growth differentiation factor 8 (GDF-8) (UniProt O14793 267-375)
# T5 construct: also called myostatin
# T5 sequence (looked up): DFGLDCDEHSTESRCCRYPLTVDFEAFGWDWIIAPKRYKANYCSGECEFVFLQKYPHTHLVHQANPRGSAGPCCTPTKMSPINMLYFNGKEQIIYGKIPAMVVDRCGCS
# T6: BMP-10 (UniProt O95393 317-424)
# T6 sequence (looked up): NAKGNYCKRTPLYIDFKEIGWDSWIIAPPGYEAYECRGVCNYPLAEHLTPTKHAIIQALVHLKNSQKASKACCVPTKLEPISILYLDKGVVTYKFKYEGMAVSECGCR
# How the values were obtained:
# Activin A [1] = target: T1, Activin A; assay: cell-based or functional assay
# Activin B [2] = target: T2, Activin B; assay: cell-based or functional assay
# GDF-11 [3] = target: T3, GDF-11; assay: cell-based or functional assay
# BMP-9 [4] = target: T4, BMP-9; assay: cell-based or functional assay
# Activin A [5] = target: T1, Activin A; assay: SPR (Biacore 8K), Fc protein captured on anti-human IgG, ligand injected
# Description: (§1) The Cytiva Biacore 8k was used to measure the kinetics of the interactions between the ActRII- and chimera-Fc proteins and Activin A/Activin B/growth differentiation factor 8 (GDF-8)/GDF-11/BMP-9/BMP-10. Series S CM4 Sensor Chips were immobilized with anti-human capture antibody using the reagents and protocol in the Biacore Human Antibody Capture Kit (GE Life Sciences). Briefly, anti-human IgG was diluted to 25 μg/mL in immobilization buffer. The carboxylated surface of the sensor was activated by injecting a mixture of EDC and NHS. The anti-human IgG was injected into the activated sensor chip flow cells at 10 μL/min for a total of 7 minutes until the chip reached an immobilization level of 3000 resonance units (RU). Ethanolamine was injected to deactivate the sensor surfaces. The chip has 8 flow cells to be used for binding analysis, each with an in-line reference surface to subtract instrument noise and non-specific binding to the sensor chip. The ActRII- and chimera-Fc proteins were captured in their own flow cell to allow for a maximum analyte binding response of 20-30 RU. This was done by injecting 10-20 μL of the ActRII- and chimera-Fc proteins into the flow cells at a concentration of 2 μg/mL until 60-90 RU was captured. Ligand at a single concentration was injected at […] for 60 seconds and then allowed to dissociate under buffer flow for no less than 5 minutes. After the cycle completed, captured protein was stripped from the chip with an injection of 3 M magnesium chloride, the regeneration buffer provided with the Biacore Human Antibody Capture Kit. Each ligand was injected in a concentration series, including a buffer only 0 nM concentration to serve as a double reference for subtracting out instrument noise. The data were analyzed using the Biacore Insight Evaluation Software.
# Activin B [6] = target: T2, Activin B; assay: as above
# Description: as §1
# [7] = target: T5, growth differentiation factor 8 (GDF-8); assay: as above
# Description: as §1
# GDF-11 [8] = target: T3, GDF-11; assay: as above
# Description: as §1
# BMP-9 [9] = target: T4, BMP-9; assay: as above
# Description: as §1
# BMP-10 = target: T6, BMP-10; assay: as above
# Description: as §1
# Activin A [10] = target: T1, Activin A; assay: cell-based or functional assay; remark: listed apart in the source
# Activin B [11] = target: T2, Activin B; assay: cell-based or functional assay; remark: listed apart in the source
# GDF-11 [12] = target: T3, GDF-11; assay: cell-based or functional assay; remark: listed apart in the source
# BMP-9 [13] = target: T4, BMP-9; assay: cell-based or functional assay; remark: listed apart in the source
Binder,"IC50, SBE-luciferase reporter in HEK293 cells (Activin A [1]) [µg/mL]","IC50, SBE-luciferase reporter in HEK293 cells (Activin B [2]) [µg/mL]","IC50, SBE-luciferase reporter in HEK293 cells (GDF-11 [3]) [µg/mL]","IC50, BRE-luciferase reporter in C2C12 cells (BMP-9 [4]) [µg/mL]",Kd (Activin A [5]) [nM],Kd (Activin B [6]) [nM],Kd [7] [nM],Kd (GDF-11 [8]) [nM],Kd (BMP-9 [9]) [nM],Kd (BMP-10) [nM],"IC50, SBE-luciferase reporter in HEK293 cells (Activin A [10]) [µg/mL]","IC50, SBE-luciferase reporter in HEK293 cells (Activin B [11]) [µg/mL]","IC50, SBE-luciferase reporter in HEK293 cells (GDF-11 [12]) [µg/mL]","IC50, BRE-luciferase reporter in C2C12 cells (BMP-9 [13]) [µg/mL]"
"ActRIIA-A3 (SEQ ID NO: 106) chimera-Fc protein (Fc fusion, Tested as chimera-Fc protein; not shown: linker (if any) and Fc domain) GAILGRSETQECLFFNANWEKDRTNQTGVEPCEGEQDKRRHCFATWKNISGSIEIVKQGCWLDDINCYDRTDCVEKKDSPEVYFCCCEGNMCNEKFSYFPEMEVTQPTS",0.63,0.24,0.19,12,0.0357,0.0755,0.0977,< 0.001,18,0.0289,,,,
"ActRIIA-B1B4 (SEQ ID NO: 102) chimera-Fc protein (Fc fusion, Tested as chimera-Fc protein; also called ActRIIA-B1β4; not shown: linker (if any) and Fc domain) GAILGRSETQECIYYNANWEKDRTNQTGVEPCYGDKDKRRHCFATWKNISGTIELVKKGCWLDDINCYDRTDCVEKKDSPEVYFCCCEGNMCNEKFSYFPEMEVTQPTS",0.75,0.13,0.26,> 50,0.024,0.00531,0.125,3.43,32.9,0.227,,,,
"ActRIIA-B3 (SEQ ID NO: 97) chimera-Fc protein (Fc fusion, Tested as chimera-Fc protein; not shown: linker (if any) and Fc domain) GAILGRSETQECLFFNANWEKDRTNQTGVEPCYGDKDKRLHCYASWRNSSGSIEIVKQGCWLDDINCYDRTDCVEKKDSPEVYFCCCEGNMCNEKFSYFPEMEVTQPTS",0.14,0.071,0.13,> 50,0.0256,< 0.001,0.0248,< 0.001,13.6,0.0122,,,,
"ActRIIA-A5 (SEQ ID NO: 107) chimera-Fc protein (Fc fusion, Tested as chimera-Fc protein; not shown: linker (if any) and Fc domain) GAILGRSETQECLFFNANWEKDRTNQTGVEPCYGDKDKRRHCFATWKNISGSIEIVKQGCWLDDFNCYDRQECVEKKDSPEVYFCCCEGNMCNEKFSYFPEMEVTQPTS",0.3,0.073,0.23,4.2,0.048,0.0174,0.122,0.00665,2.55,0.126,,,,
"ActRIIA-B7 (SEQ ID NO: 100) chimera-Fc protein (Fc fusion, Tested as chimera-Fc protein; not shown: linker (if any) and Fc domain) GAILGRSETQECLFFNANWEKDRTNQTGVEPCYGDKDKRRHCFATWKNISGSIEIVKQGCWLDDINCYDRTDCVEKKDSPEVYFCCCEGNMCNERFTHLPEMEVTQPTS",0.84,0.18,0.23,21,0.024,0.00889,0.0121,< 0.001,58.9,0.141,,,,
"ActRIIA-A6 (SEQ ID NO: 108) chimera-Fc protein (Fc fusion, Tested as chimera-Fc protein; not shown: linker (if any) and Fc domain) GAILGRSETQECLFFNANWEKDRTNQTGVEPCYGDKDKRRHCFATWKNISGSIEIVKQGCWLDDINCYDRTDCVEKEENPQVYFCCCEGNMCNEKFSYFPEMEVTQPTS",0.33,0.1,0.077,8.8,0.032,0.0558,0.0682,< 0.001,49.7,0.347,,,,
"ActRIIA-A1 (SEQ ID NO: 104) chimera-Fc protein (Fc fusion, Tested as chimera-Fc protein; not shown: linker (if any) and Fc domain) GRGEAETRECLFFNANWEKDRTNQTGVEPCYGDKDKRRHCFATWKNISGSIEIVKQGCWLDDINCYDRTDCVEKKDSPEVYFCCCEGNMCNEKFSYFPEMEVTQPTS",0.64,0.21,0.24,50,0.0703,0.0199,0.203,< 0.001,62,0.0663,,,,
"ActRIIB-A8 (SEQ ID NO: 126) chimera-Fc protein (Fc fusion, Tested as chimera-Fc protein; not shown: linker (if any) and Fc domain) GRGEAETRECIYYNANWELERTNQSGLERCEGEQDKRLHCYASWRNSSGTIELVKKGCWLDDFNCYDRQECVATEENPQVYFCCCEGNFCNERFTHLPEMEVTQPTS",,,,,0.0442,< 0.001,0.00423,< 0.001,0.074,0.0292,0.23,0.052,0.13,3.6

# The next binders have a lower Kd (Activin A [5]) than those just listed; values first:
"IC50, SBE-luciferase reporter in HEK293 cells (Activin A [1]) [µg/mL]","IC50, SBE-luciferase reporter in HEK293 cells (Activin B [2]) [µg/mL]","IC50, SBE-luciferase reporter in HEK293 cells (GDF-11 [3]) [µg/mL]","IC50, BRE-luciferase reporter in C2C12 cells (BMP-9 [4]) [µg/mL]",Kd (Activin A [5]) [nM],Kd (Activin B [6]) [nM],Kd [7] [nM],Kd (GDF-11 [8]) [nM],Kd (BMP-9 [9]) [nM],Kd (BMP-10) [nM],"IC50, SBE-luciferase reporter in HEK293 cells (Activin A [10]) [µg/mL]","IC50, SBE-luciferase reporter in HEK293 cells (Activin B [11]) [µg/mL]","IC50, SBE-luciferase reporter in HEK293 cells (GDF-11 [12]) [µg/mL]","IC50, BRE-luciferase reporter in C2C12 cells (BMP-9 [13]) [µg/mL]",Binder
1.4,0.25,0.39,> 50,0.0217,0.0249,0.0898,< 0.001,77.2,0.2,,,,,"ActRIIA-B1B7 (SEQ ID NO: 101) chimera-Fc protein (Fc fusion, Tested as chimera-Fc protein; also called ActRIIA-B1β7; not shown: linker (if any) and Fc domain) GAILGRSETQECIYYNANWEKDRTNQTGVEPCYGDKDKRRHCFATWKNISGSIEIVKQGCWLDDINCYDRTDCVEKKDSPEVYFCCCEGNMCNERFTHLPEMEVTQPTS"
0.32,0.094,0.22,> 50,0.0186,< 0.001,0.115,< 0.001,13.6,0.046,,,,,"ActRIIA-B4 (SEQ ID NO: 98) chimera-Fc protein (Fc fusion, Tested as chimera-Fc protein; not shown: linker (if any) and Fc domain) GAILGRSETQECLFFNANWEKDRTNQTGVEPCYGDKDKRRHCFATWKNISGTIELVKKGCWLDDINCYDRTDCVEKKDSPEVYFCCCEGNMCNEKFSYFPEMEVTQPTS"
0.7,0.16,0.29,> 50,0.016,< 0.001,0.0672,< 0.001,13.1,0.0605,,,,,"ActRIIA-B2B4 (SEQ ID NO: 103) chimera-Fc protein (Fc fusion, Tested as chimera-Fc protein; not shown: linker (if any) and Fc domain) GAILGRSETQECLEFNANWEKDRTNQSGLERCYGDKDKRRHCFATWKNISGTIELVKKGCWLDDINCYDRTDCVEKKDSPEVYFCCCEGNMCNEKFSYFPEMEVTQPTS"
,,,,0.0066,0.0197,0.00354,< 0.001,1.08,0.369,0.13,0.086,0.14,0.36,"ActRIIB-B1B2B3B4 (SEQ ID NO: 119) chimera-Fc protein (Fc fusion, Tested as chimera-Fc protein; not shown: linker (if any) and Fc domain) GRGEAETRECLFFNANWELERTNQTGVEPCEGEQDKRRHCFATWKNISGSIEIVKQGCWLDDFNCYDRQECVATEENPQVYFCCCEGNFCNERFTHLPEAGGPEVTYEPPPTAPT"
